# Data taken from the DeepSol protein solubility set.
# Experiment: soluble on expression in E. coli; label from the status in PepcDB or PDB records
row,Sequence,soluble on expression in E. coli
1,MGSDKIHHHHHHMSYVAVKGGSTAIRAAHRLVRKRMRGDPDAPEITPRQICEQMHLGVDRVMAEASLYDEDLAARAMLQAQGDMIEAIFLLRAYRATLTRFLDSTPLAMDTMRVQRRISAAFKELPGGQQLGQTYDYSHRLFGYFDRLETKSDIESGKTEVPPEPMTSVMDLLEKEGLMELAAACEPPAENMQQDITRHPLLFPATRAQRLQSLARGDEGFLLSMAYSTQRGYGQNHPFIAELRMGDVTVEITPPELGFPIEIGTITVTECQMINQFQARSPEEAAFTRGYGLVFGHSERKAIAMALVDRALRAGELGEEALSPAQNEQFVLSHCDNVETTGFVEHLKLPHYVDFQSEIQTLRHLHKTAAKDGADRV,not soluble
2,MGSDKIHHHHHHMTAAESIYALYPYIQHAQLLAHNEKIKQDNVIFTYTVSLSYDEISLRVLHVDSDNTKHIHIQVLFEINQGKIYVKDLYHNSGAAFELLTSIKSNPSLHQASFAQNSVPASWLSRDILNSLAIADRIAQKAINQYAGDDYRPGYYSQIECSGTQLILSQINHMNSRSLSHKENYSLRNLTFTIPLNGKADSEMLYNTDRIGIMNINFSDHSSANNRSAGDAVKNQIAEEIRLYQNDVE,not soluble
3,MGSDKIHHHHHHMTARNILSYSYEEYVEKITAFHGYPAPGVLIGGFMVDLAVKNLPEGILYDAICETRTCLPDAVQLLTPCTFGNGWLTVLPMGLFAVSLYDKFTGEGVRVFLDVEKMGPWQEIRNWFLKLKTKKEQDSERLFKEIREAGPDILELRNVKLKPGFLEKKHKGKIVLCPQCREAYPAQDGELCLSCQGGSPYL,not soluble
4,MGSDKIHHHHHHMTATASSSPKLRVDTRGTNELPPHLDENLLTPRFYVTEFKKAAKTELTDAREEFEAMLSEMKADYNCTHFDRKASLDRLQELPQKAKETYESYLVRSVISEFSGFLLFKEISNRLKKEGNRDLGKLFQFLARDEARHAGFLSRALVAEGIEVDLPHLGGKRAATWFPISWVIYSVYLSEKIGYWRYILMDRHLKANPDQAFAPLFDFFEPWCQDENRHGDCFTVMMRCWPGITKGFRGKLLSRFFLWSVFLTHTLTVCERGEFYELLGIDPKEFDEEVIKRTNHTSKNAFPWVFNLDDNKFWDLRNKIIESFRAFVGAKGLTKPVKFVKFATLIFKQFALPMEKTDALRYDKNVNFTGQDILNFWTDK,not soluble
5,MGSDKIHHHHHHMTDNQLLMQEALEWKMHFLRKDSMFERFSKRVQTKVNERIPEKIHTVVTESVKKMVEATMAGSNIITYKKDTSALSLSEKNELAKKTIVSYQKVAAAEGVGTGAGGIFLSIADFPLLLSIKMKCLFTLSSIYGFDVKDAQERIFLLLVFQLAFSSDDGRKSLFSVIENWETEKKSIDWRVFQQEYRDYIDVVKLFQLLPGVGAAVGGIANYKLLAQLGETARHVFHLRILKETAGE,not soluble
6,MGSDKIHHHHHHMTEDIIKKYRGKLPESILEQWHLFGFAGYLNGLYWITNPDDYAEVIYDWLEETPLPDDDVYHVLARSAFGELLIWGERNYGRYYIKTMEGILHDNGEQLESAEFYGSDFFFLPKKNYLDYTDKNGNKLFDRAVKKLGVLKADEMYAFEPALALGGEESLQHLTKVNLPVHMKLLKQVTPLRLRTFEDLTAALYGTSYSVDDLTSGQDAESQYQESVQAGEVCPRTGYWTTPAQPNTRHYCKKGEVLPEIKEQDWGEVYWYWDGEN,not soluble
7,MGSDKIHHHHHHMTEFAIELTGINKSFGAVKANRDVTMSVPKGSIHGIIGENGAGKSTLMSILYGYYHADSGTIRVNGKDVRIRNSQEAIRLGIGMVHQHFMLVETFTVLENIVLGAEGGRLLKGGMEQAREHLKELNKNYSLEVDPDALVGDLGVGLQQRVEILKALYRGADVLILDEPTAVLTPQEADHLFHILRSLKAQGKTVILITHKLREVMDITDNVSVMRAGTVVDNVRTCDVDKEKLADLMVGRKVSLKVDKADSQAGAAVLDVQGLTLIDERKVKLLDNLNFQVRAGEIVGIAGVSGNGQSELLEVLAGMRDPSAGAVVYKGEDLLKLPCRRKPRAAVYRQRGIGHIPEDRSREGLVKAFSTFENAILGYHDDKTLNSGPLYSRKKLVERTRDFIAQFDIRPGNPLLRVGLLSGGNQQKVVLAREIHANPDLLLIGQPTRGVDIGAIEFIHKRLIELRDEGKAILLVSVELEEILALSDRILVMAGGQITGEVAAKDADTISLGLLMGGHKH,not soluble
8,MGSDKIHHHHHHMTEGGFDPALLVQSWPKPSKPRPIVTFGSGSIVGDAHFPAYRKAGFPIAGLYDPDQAKATTLADKWGVTAFRSVGEAAAVQDAIFDLATPPGRHAEILKDLPDGAVALIQKPMGNYLGEATEILEICRAKNLKAAVNFQLRFAPMMLALKDAIAKGWLGEIVDFDAWLALATPWELWEFLLKAPRVEIAMHSIHYLDLIRQLLGDPKGVHAKTLGHPNHKVAQTRTSAILDYGDTVRCALSINHDHKFGRRHQACEFRICGTEGAAYLKLGLNLDYPRGEPDILEIHPKGGTDWIAVPLAGEWFPDAFVGRMANVQRFASGEDDELVSSVEDAWSTMALVEAAYKSSAAPATLIAERP,not soluble
9,MGSDKIHHHHHHMTEKVSRFPGVFPLIVIGVPGSVDKTHKKLAFAPNLNRWRDIDVEKYFKVFEVYLENDANLAALAEMMRNKHFGDRKNIVYILVREGIGGGIIIEGKLYKGSFNAAGEIGHMKMYDRGPCFCGRVGCWEANTSISHCVRQYEKKKPLPGNTMYEKFETLCRIYEEDPLAKEVLDEFTGILIDGIVNLVNILSPEIVIVGGEGVFLPESVFEVIVSETRRQVHPMDKEVSVEKGSLSNKEVVLEGTSILSSMMISERLV,not soluble
10,MGSDKIHHHHHHMTGIPTHKAVQQSDFGIFAKEVSPFSPNRTINYVHRDDYYILGVVKSGTCHVSIDFKEYVFSAGDVVCTQPNQVHHIIDTGNADVLLLFIDGVFIDTPTKQIIAEYVLSPVPFKINDIQYTDLGQLFSMILRRMNGGNPDCKSKAVIQNLSCAIVGIITDNIQKYIGQNHKNRRHIEITLALKALFSEEKQLNRSVSYYAEALHISPVYLNEVVKNVTGESVSKYIQNELILRAKRMLVYTSLNVREISIDLGIEDYAYFTRLFTKAVGVNPTSYRKKYLE,not soluble
11,MGSDKIHHHHHHMTIALTGGGTGGHLAIVRCLLESAIKKNIECVYIGSQNGQDKAWFENEVRFKEKFFLSSKGVVNQSKFDKISSLLHTLKLSKDCREIFKKYHIQAVFSVGGYSAAPASFAALFSHLPLFIHEQNSKSGSLNMLLKPFATKFFSAFEKEISPYPVADKFFDNARIRKELKNIIFLGGSQGAQFINELALNLAPKLQEQNIKIIHQCGKNDFEKCKKHYQSLNIQADIFDFSLNLEEKMKNADLAISRAGASTLFELCANTLPTIFIPYPYAAKNHQYFNAKFLQDQALCQIFMQNSINLDEFFKSILKLNLENISTRLQNITQKNGADMLIQKALFDNLTFIR,not soluble
12,MGSDKIHHHHHHMTIELTPPPKKNPQKRSTSATRPPEARSRAALGLSAAAAEGRFALQVCAECQAVQYPPRDACAACIGTDLVWQDISPDGHLLAETTIQTSTKLFFRERAPWRMGSVKLTAGPVVLCHVHGDCTRGGPVKILNRLDKSGQAVLIAIPPERTEHMDDDPQLRAMSANPKHRRILITDAWNPNTPALAKALLEAGAATIFVGEAESWRPHPNRDTLAGMENVDILPLDVTDTASVQTLAGEIGGKTDILINNARFMRPGGVLARGDTGFARDEMEVNYLGLMRLAQAFGPGMCARMADGVNSAAAWVNILSAHALSNAPDYGCFSASNAAAYSLSQSLRGEFRSAGLRVMNVFVGPTDDDWYAPLPPPKVLPTGLARSVVDGLRDGLEDVWCGDIAKDMRDRWRRDAKVLEREMTFGSEGA,not soluble
13,MGSDKIHHHHHHMTIPTSYLNHTDAEAARKARATYRDGLVAPTSGIAPGFTQANMIVLPRDWAFDFLLYAQRNPKPCPVLDVSDPGSPTTLLAPGADLRTDLPLYRIWRDGKLAEETADATSAWAERDDLVAFLIGCSFTFETPMVEAGIEIRHMTDKSNVPMYLTNRPCRPAGRLKGNMVVSMRPIPASRVADAATISGRFPAVHGAPVHVGAPEQIGISDLSKPDFGDAVRIEPGEVPVFWACGVTPQAAVMASGVPFAITHAPGHMFITDIPDTAYHA,not soluble
14,MGSDKIHHHHHHMTIRSKFALFAGSSSYILLHKILHRGGTSLPGKIAYRIDPTFLEEFRDQIETVIVSGTNGKTLTTALCARVLKKTNRVVVTNNSGSNMIQGIVAALLSQKDKIKKSIRHGTIPIAVLEVDEANVKEVAKILQPTHFVLTNIFRDQMDRYGEIYTTYEKITDGIKTAPKAKVVANGDSPIFARKPYKNQAVYFGFTHKKSVGDLRAPNNTDGVLAPTNDQVLHYHYLTYANLGDYFTKDGSFKRPQLKYSVNKINSLTPSKSEFEIAGNKFTLPLGGLYNIYNALAAYSLGREFQISAEDIFNALNEDSRIFGRQEQLTIGSHLVTIVLIKNPVGANSVIDMMMTDPEEFSLVTLLNANYADGIDTSWIFDAEFEKLHQTALKKIIVGGQRYKDFSVRLKMAGFKNQIVEQDFAKLIDRIKELPTKNVYVAATYTSMLMFREELAKAGLAKESF,not soluble
15,MGSDKIHHHHHHMTKKLPIGIQTFREIREESYYYVDKTSFALKLAMEGKYYFLSRPRRFGKSLFLDTLAELFAGNEALFHGLYCHDRWDWSVRYPIIRLSFAEGWLESRAQLDKRICWLLEQNQQRLGVTCKQESDIPGSFAELLQNAEAKYGQRCVVLVDEYDKPILDNITEPEIARAMREGLRNLYSVIKGQDAHIRFAFLTGVSKFSKVSIFSGLNNLNDITIDADYSAICGYTDEDVDTVFAPELPGLDRQQIQDWYNGYNWTGQPVYNPFDLLLLFDKREFRAYWFETGTPTFLVDWLMQRGYFTPSLSRQYSSLELLSAFDVDHIEPEALLFQTGYTTLQGVEEYLPGQRIYWLGYPNKEVQISLNNALLPALGIEGQKVLTHRIRLLELLRANNFAGLQQLFTSFFASIPHDWYRNNPIAQYEGYYASVFYSHFAALGLDIVVEDTTHHGRIDMAVTFNANVYLFEFKVVELVPEGHALEQLKTKGYAEKYKIRNEPIYLIGAEFSKDSRSVVAFDVELFA,not soluble
16,MGSDKIHHHHHHMTKSLITGANGFVGSAVTRCLLEAGHEVRCLVRPGSDRRNLDKLPVEISEGDLRSASSLKRAVAGCDNLFHVAADYRLWVPNPDTMYEINVKGTRALVLAAAEAGMKRMVYTSSVATLGTAENGVPADEDTPSSLGSMCGHYKRSKFMAEEIVQQMTREHDLPMVIVNPSTPIGPRDIKPTPTGRLVVDTLRNRMPAYVNTGLNIVHADDIAEGHLLAYKHGKPGERYILGGENMTLLQILQKIDEIRGRRIRRLGLPVKLMVPAAWLMEKMSTVTKVEPRATVDSVSMAKKKMFYSSDKAVRELGYRYRPAAAALEDAMNWFQANGYCG,not soluble
17,MGSDKIHHHHHHMTLGIAFVGSGFSAKFHLRGLVGVRNVEVKGVYSRNLNSSKEFAMLSEQLGLGKPKVYSDISKMLSDKEINAVWLTVPNDVHLEYTKLIAEEVSQGRSNIHGITIEKPLARNVKEAKEMIRLVEKAGLLHGYLENQIFMPSVVRAREAIWEIGSRNSGRPYLARAAEEHSGPHNSWFWRPTISGGGALIDMTCHSLEATRFLLTDPAKTKSSLKPKTVYAETKTLKWNKKEYAQYLKEKYNVDFLKEPAEDYALTIVTYEDDLGNSVLAETRTSWNYVGPGLRLSVEVLGPEYSVNINTLQSELSVFFSRNIKLPQSEAFVEKQNADQGLMPIILDEAVVYGYQGEDRHMVESFISRKMPFENWYDGLLIVQLMMHAYLSAENGRKISFDPQKVEDFIPKVARGLYSAF,not soluble
